Results: publication doi:10.1101/2023.11.08.566258

Molecular target: Prominin-1 (Prom1) W795R, C-terminally Strep-tagged (human)
Assay: co-IP; EVs from cells co-transfected with Strep-tagged and mScarlet-tagged Prom1, solubilized with 1% DDM; Strep resin; co-purified Prom1-mScarlet measured by fluorescence imaging of the resin beads (CY3 filter set); control with Prom1-mScarlet alone

Prominin-1 (Prom1) W795R, C-terminally Strep-tagged (natural protein)
co-purified mScarlet fluorescence, percent of WT Prom1: 60%
